This note sets out measurements from paper PMC4695088, “An Oomycete CRN Effector Reprograms Expression of Plant HSP Genes by Targeting their Promoters”.

One data set deals with T1, GST:PsCRN108 (Phytophthora sojae, UniProt A0A0M5K865 18-820).
T1 sequence: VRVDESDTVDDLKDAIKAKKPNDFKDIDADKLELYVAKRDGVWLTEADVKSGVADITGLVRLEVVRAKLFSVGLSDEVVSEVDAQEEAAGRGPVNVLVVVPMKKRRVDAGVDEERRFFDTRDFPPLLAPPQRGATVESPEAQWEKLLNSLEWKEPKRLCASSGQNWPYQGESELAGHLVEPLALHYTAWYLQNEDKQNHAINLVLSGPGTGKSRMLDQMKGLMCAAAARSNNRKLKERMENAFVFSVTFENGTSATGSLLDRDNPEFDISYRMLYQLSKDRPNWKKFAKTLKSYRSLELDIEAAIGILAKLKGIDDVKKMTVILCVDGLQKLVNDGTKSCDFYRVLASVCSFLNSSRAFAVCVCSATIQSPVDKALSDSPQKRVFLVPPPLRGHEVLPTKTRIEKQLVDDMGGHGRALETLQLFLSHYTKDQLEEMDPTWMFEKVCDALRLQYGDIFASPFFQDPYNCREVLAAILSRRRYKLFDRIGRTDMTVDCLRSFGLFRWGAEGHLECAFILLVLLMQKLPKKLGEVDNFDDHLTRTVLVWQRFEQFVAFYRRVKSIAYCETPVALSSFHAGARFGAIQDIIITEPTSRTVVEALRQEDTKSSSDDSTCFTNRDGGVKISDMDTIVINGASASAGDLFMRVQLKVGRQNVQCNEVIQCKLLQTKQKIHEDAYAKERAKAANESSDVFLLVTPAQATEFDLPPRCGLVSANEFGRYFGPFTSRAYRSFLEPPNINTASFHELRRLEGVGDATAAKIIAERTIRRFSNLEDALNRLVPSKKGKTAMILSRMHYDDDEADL
Put plainly: pull-down; 25 mM HEPES pH 8, 10 mM MgCl2, 20 mM KCl, 0.1 mM EDTA, 1 mM DTT, 100 ng poly(dI-dC), 5% glycerol, 25 C (EMSA 3 h; pull-down in the same buffer, 1 h + 1 h). The following applies: protein: recombinant; tags: N-terminal GST (pGEX-4T-2); label: 5' biotin; blunt.

Data set [1] has as its target T2, MBP:PsCRN108 (Phytophthora sojae, UniProt A0A0M5K865 18-820).
T2 sequence: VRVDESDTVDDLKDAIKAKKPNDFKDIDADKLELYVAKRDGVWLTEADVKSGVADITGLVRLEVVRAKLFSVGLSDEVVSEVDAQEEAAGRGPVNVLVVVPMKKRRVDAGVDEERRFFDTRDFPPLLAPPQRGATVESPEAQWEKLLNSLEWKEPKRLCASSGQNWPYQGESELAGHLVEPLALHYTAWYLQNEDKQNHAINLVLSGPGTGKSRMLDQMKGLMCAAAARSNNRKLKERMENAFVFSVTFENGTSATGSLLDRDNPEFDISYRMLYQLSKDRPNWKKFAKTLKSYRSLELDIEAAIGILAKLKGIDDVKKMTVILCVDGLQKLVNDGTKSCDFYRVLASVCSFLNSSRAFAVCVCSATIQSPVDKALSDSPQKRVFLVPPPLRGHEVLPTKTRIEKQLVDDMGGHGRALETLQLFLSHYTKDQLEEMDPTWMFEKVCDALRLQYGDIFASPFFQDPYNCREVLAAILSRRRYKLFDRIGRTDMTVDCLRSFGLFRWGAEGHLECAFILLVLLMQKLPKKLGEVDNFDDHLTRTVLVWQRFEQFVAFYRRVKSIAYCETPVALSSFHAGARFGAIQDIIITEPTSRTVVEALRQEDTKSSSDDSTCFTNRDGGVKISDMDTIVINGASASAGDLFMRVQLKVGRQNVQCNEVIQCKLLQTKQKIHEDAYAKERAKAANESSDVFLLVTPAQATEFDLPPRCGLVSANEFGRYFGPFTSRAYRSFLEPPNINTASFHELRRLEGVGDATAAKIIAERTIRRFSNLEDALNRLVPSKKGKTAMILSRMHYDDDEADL
Described as above. As to conditions: protein: recombinant; tags: N-terminal His, MBP (pHMTc); label: 5' biotin; blunt.

The target in data set [2] is T3, MBP:AtHsfA1a (Arabidopsis thaliana, UniProt P41151 1-495). The data set is described as above. As to conditions: protein: recombinant; tags: N-terminal His, MBP (pHMTc); chain copies: 3; label: 5' biotin; blunt.
T3 sequence (P41151 whole entry): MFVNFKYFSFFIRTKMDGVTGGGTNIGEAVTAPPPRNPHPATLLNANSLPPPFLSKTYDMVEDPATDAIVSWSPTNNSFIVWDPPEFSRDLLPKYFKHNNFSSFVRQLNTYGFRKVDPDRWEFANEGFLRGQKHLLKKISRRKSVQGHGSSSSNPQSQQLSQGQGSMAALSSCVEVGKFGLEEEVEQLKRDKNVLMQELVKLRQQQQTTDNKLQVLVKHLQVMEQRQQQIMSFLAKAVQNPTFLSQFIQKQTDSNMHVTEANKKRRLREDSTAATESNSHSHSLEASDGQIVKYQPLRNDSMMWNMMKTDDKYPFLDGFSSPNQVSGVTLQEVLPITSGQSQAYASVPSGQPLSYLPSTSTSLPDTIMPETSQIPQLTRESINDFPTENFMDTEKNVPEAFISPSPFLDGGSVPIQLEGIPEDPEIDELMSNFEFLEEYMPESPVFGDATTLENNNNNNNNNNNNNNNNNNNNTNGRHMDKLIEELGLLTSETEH
Data set [3] has as its target T2, MBP:PsCRN108. Put plainly: EMSA; up to 6 uM protein, 5 nM DNA; weaker than AtHsfA1a; complex in wells; competed by unlabeled HSE; 25 mM HEPES pH 8, 10 mM MgCl2, 20 mM KCl, 0.1 mM EDTA, 1 mM DTT, 100 ng poly(dI-dC), 5% glycerol, 25 C (EMSA 3 h; pull-down in the same buffer, 1 h + 1 h). As to conditions: protein: recombinant; tags: N-terminal His, MBP (pHMTc); label: 5' Alex660 (EMSA); blunt.

Data set [4] has as its target T3, MBP:AtHsfA1a. The data set can be described thus: EMSA; up to 2 uM protein, 5 nM DNA; complex in wells; competed by unlabeled HSE; 25 mM HEPES pH 8, 10 mM MgCl2, 20 mM KCl, 0.1 mM EDTA, 1 mM DTT, 100 ng poly(dI-dC), 5% glycerol, 25 C (EMSA 3 h; pull-down in the same buffer, 1 h + 1 h). As to conditions: protein: recombinant; tags: N-terminal His, MBP (pHMTc); chain copies: 3; label: 5' Alex660 (EMSA); blunt.

B1: biotinylated 19 bp HSE (dsDNA)
DNA 1: CCAGAAGCTTCCAGAAGCC
DNA 2: GGCTTCTGGAAGCTTCTGG
Take B1: the binding result with GST:PsCRN108, with MBP:PsCRN108 [1] and with MBP:AtHsfA1a [2] was “binds” in each case.

B2: 19 bp HSE (dsDNA)
DNA 1: CCAGAAGCTTCCAGAAGCC
DNA 2: GGCTTCTGGAAGCTTCTGG
Regarding B2, the binding result in the data set with MBP:PsCRN108 [3] and in the data set with MBP:AtHsfA1a [4] was “binds” each time.
